Experimental data taken from the supplement of paper PMC11246515.
± gives the standard deviation of the averaged measurements.

Experiment: total protein half-life in vivo (active degradation + dilution); higher = more stable protein
[1] = E. coli NCM3722 delta-clpP delta-lon delta-hslV, growth: N-lim chemostat, doubling time 6 h
[2] = E. coli NCM3722 delta-clpP, growth: N-lim chemostat, doubling time 6 h
[3] = E. coli NCM3722 delta-hslV, growth: N-lim chemostat, doubling time 6 h
[4] = E. coli NCM3722 delta-lon, growth: N-lim chemostat, doubling time 6 h
[5] = E. coli NCM3722 delta-smpB, growth: N-lim chemostat, doubling time 6 h
[6] = wild type E. coli NCM3722, growth: C-lim chemostat, doubling time 6 h
[7] = wild type E. coli NCM3722, growth: C-lim chemostat, doubling time 12 h
[8] = wild type E. coli NCM3722, growth: N-lim chemostat, doubling time 6 h
[9] = wild type E. coli NCM3722, growth: N-lim chemostat, doubling time 12 h
[10] = wild type E. coli NCM3722, growth: P-lim chemostat, doubling time 6 h
[11] = wild type E. coli NCM3722, growth: P-lim chemostat, doubling time 12 h
[12] = wild type E. coli NCM3722, growth: C-lim chemostat, doubling time 3 h

| Sequence | total protein half-life in vivo [1] [h] | total protein half-life in vivo [2] [h] | total protein half-life in vivo [3] [h] | total protein half-life in vivo [4] [h] | total protein half-life in vivo [5] [h] | total protein half-life in vivo [6] [h] | total protein half-life in vivo [7] [h] | total protein half-life in vivo [8] [h] | total protein half-life in vivo [9] [h] | total protein half-life in vivo [10] [h] | total protein half-life in vivo [11] [h] | total protein half-life in vivo [12] [h] |
| --- | --- | --- | --- | --- | --- | --- | --- | --- | --- | --- | --- | --- |
| MKGRLLDAVPLSSLTGVGAALSNKLAKINLHTVQDLLLHLPLRYEDRTHLYPIGELLPGVYATVEGEVLNCNISFGGRRMMTCQISDGSGILTMRFFNFSAAMKNSLAAGRRVLAYGEAKRGKYGAEMIHPEYRVQGDLSTPELQETLTPVYPTTEGVKQATLRKLTDQALDLLDTCAIEELLPPELSQGMMTLPEALRTLHRPPPTLQLSDLETGQHPAQRRLILEELLAHNLSMLALRAGAQRFHAQPLSANDTLKNKLLAALPFKPTGAQARVVAEIERDMALDVPMMRLVQGDVGSGKTLVAALAALRAIAHGKQVALMAPTELLAEQHANNFRNWFAPLGIEVGWLAGKQKGKARLAQQEAIASGQVQMIVGTHAIFQEQVQFNGLALVIIDEQHRFGVHQRLALWEKGQQQGFHPHQLIMTATPIPRTLAMTAYADLDTSVIDELPPGRTPVTTVAIPDTRRTDIIDRVHHACITEGRQAYWVCTLIEESELLEAQAAEATWEELKLALPELNVGLVHGRMKPAEKQAVMASFKQGELHLLVATTVIEVGVDVPNASLMIIENPERLGLAQLHQLRGRVGRGAVASHCVLLYKTPLSKTAQIRLQVLRDSNDGFVIAQKDLEIRGPGELLGTRQTGNAEFKVADLLRDQAMIPEVQRLARHIHERYPQQAKALIERWMPETERYSNA | 5.83 ± 0.22 | 5.05 ± 0.14 | 5.74 ± 0.61 | 5.32 ± 0.16 | 5.01 ± 0.36 | 6.17 ± 0.47 | 10.5 ± 0.46 | 4.91 ± 0.11 | 8.73 ± 0.86 | 6.25 ± 0.072 | 11.3 ± 0.53 | – |
| MKGSYKSRWVIVIVVVIAAIAAFWFWQGRNDSRSAAPGATKQAQQSPAGGRRGMRSGPLAPVQAATAVEQAVPRYLTGLGTITAANTVTVRSRVDGQLIALHFQEGQQVKAGDLLAEIDPSQFKVALAQAQGQLAKDKATLANARRDLARYQQLAKTNLVSRQELDAQQALVSETEGTIKADEASVASAQLQLDWSRITAPVDGRVGLKQVDVGNQISSGDTTGIVVITQTHPIDLVFTLPESDIATVVQAQKAGKPLVVEAWDRTNSKKLSEGTLLSLDNQIDATTGTIKVKARFNNQDDALFPNQFVNARMLVDTEQNAVVIPTAALQMGNEGHFVWVLNSENKVSKHLVTPGIQDSQKVVIRAGISAGDRVVTDGIDRLTEGAKVEVVEAQSATTPEEKATSREYAKKGARS | 6.33 ± 0.75 | – | – | 6.148 ± 0.046 | 6.07 ± 0.51 | 6.25 ± 0.65 | 12.3 ± 0.27 | 6.1255 ± 0.0044 | 13.2 ± 0.32 | 5.8716 ± 0.00037 | 10.5 ± 0.89 | – |
| MKHYSIQPANLEFNAEGTPVSRDFDDVYFSNDNGLEETRYVFLGGNQLEVRFPEHPHPLFVVAESGFGTGLNFLTLWQAFDQFREAHPQAQLQRLHFISFEKFPLTRADLALAHQHWPELAPWAEQLQAQWPMPLPGCHRLLLDEGRVTLDLWFGDINELTSQLDDSLNQKVDAWFLDGFAPAKNPDMWTQNLFNAMARLARPGGTLATFTSAGFVRRGLQDAGFTMQKRKGFGRKREMLCGVMEQTLPLPCSAPWFNRTGSSKREAAIIGGGIASALLSLALLRRGWQVTLYCADEAPALGASGNRQGALYPLLSKHDEALNRFFSNAFTFARRFYDQLPVKFDHDWCGVTQLGWDEKSQHKIAQMLSMDLPAELAVAVEANAVEQITGVATNCSGITYPQGGWLCPAELTRNVLELAQQQGLQIYYQYQLQNLSRKDDCWLLNFAGDQQATHSVVVLANGHQISRFSQTSTLPVYSVAGQVSHIPTTPELAELKQVLCYDGYLTPQNPANQHHCIGASYHRGSEDTAYSEDDQQQNRQRLIDCFPQAQWAKEVDVSDKEARCGVRCATRDHLPMVGNVPDYEATLVEYASLAEQKDEAVSAPVFDDLFMFAALGSRGLCSAPLCAEILAAQMSDEPIPMDASTLAALNPNRLWVRKLLKGKAVKAG | 4.59 ± 0.099 | 4.792 ± 0.021 | 4.36 ± 0.24 | 4.42 ± 0.19 | 3.84 ± 0.39 | 5.48 ± 0.74 | 9.73 ± 0.51 | 4.41 ± 0.17 | 8.97 ± 0.84 | 4.57 ± 0.22 | 7.48 ± 1 | 2.83 ± 0.03 |
| MKIELTVNGLKIQAQYQNEEIENVHKPLLHMLAALQTVNPQRRTVVFLCAPPGTGKSTLTTFWEYLAQQDPELPAIQTLPMDGFHHYNSWLDAHQLRPFKGAPETFDVAKLTENLRQVVEGDCTWPQYDRQKHDPVEDALHVTAPLVIVEGNWLLLDDEKWLELASFCDFSIFIHAPAQILRERLISRKIAGGLTRQVAEAFYARTDGPNVERVLMNSRQANLIVEMTEEGRYHFTS | 5.96 | 1.31 | – | – | – | – | – | – | – | – | – | – |
| MKIISKMLVGALALAVTNVYAAELMTKAEFEKVESQYEKIGDISTSNEMSTADAKEDLIKKADEKGADVLVLTSGQTDNKIHGTANIYKKK | 5.25 ± 1.4 | 5.09 ± 0.88 | 5.83 ± 1 | 5.4 ± 0.39 | 4.12 ± 0.067 | 4.78 ± 0.76 | 5.78 ± 0.63 | 5.28 ± 0.32 | 9.55 ± 3.1 | 4.64 ± 1.1 | 9.62 ± 0.2 | 2.86 ± 0.34 |
| MKIITCFKLVPEEQDIVVTPEYTLNFDNADAKISQFDLNAIEAASQLATDDDEIAALTVGGSLLQNSKVRKDVLSRGPHSLYLVQDAQLEHALPLDTAKALAAAIEKIGFDLLIFGEGSGDLYAQQVGLLVGEILQLPVINAVSAIQRQGNTLVIERTLEDDVEVIELSVPAVLCVTSDINVPRIPSMKAILGAGKKPVNQWQASDIDWSQSAPLAELVGIRVPPQTERKHIIIDNDSPEAIAELAEHLKKALN | – | – | – | 4.32 | – | – | – | – | – | – | – | 0.95 |
